Measured values taken from patent US20230280343A1.

B1: HIF1α-MAP-1 (H-MAP-1) (designed binder)
chain: MRGSHHHHHHGSACELAATATATATATATAACGDLAPQMLRELQETNAALQDVRELLRQQVKEITFLKNTLLEIWKAAKEAAKEAAAKIEEQAKTFLDKFNGEELLRALDQVN
B2: HIF1α-MAP-2 (H-MAP-2) (designed binder)
chain: MRGSPKKKRKVGGGGSHHHHHHHHGSACELAATATATATATATAACGDLAPQMLRELQETNAALQDVRELLRQQVKEITFLKNTLLEIWKAAKEAAKEAAAKIEEQAKTFLDKFNGEELLRALDQVN

Tests used:
p300 [1] = target: p300 (UniProt Q09472); assay: ELISA, total binding fit, average of three independent trials (FIG. 21)
p300 [2] = target: p300 (UniProt Q09472); assay: ELISA; ratio of Kd against native HIF1α

p300, sequence (Q09472 323-423 limits assumed): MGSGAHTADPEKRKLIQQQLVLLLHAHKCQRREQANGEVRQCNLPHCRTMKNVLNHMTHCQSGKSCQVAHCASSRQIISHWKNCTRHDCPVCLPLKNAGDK

Binder	Kd (p300 [1])	fold improvement over native HIF1α (p300 [2])
B1	0.00808 nM	47 fold
B2	0.0382 nM	
